Source: publication PMC12804927

Molecular target: T1, GFP-UTP15 IDR (UniProt Q8C7V3 314-528)
T1 sequence: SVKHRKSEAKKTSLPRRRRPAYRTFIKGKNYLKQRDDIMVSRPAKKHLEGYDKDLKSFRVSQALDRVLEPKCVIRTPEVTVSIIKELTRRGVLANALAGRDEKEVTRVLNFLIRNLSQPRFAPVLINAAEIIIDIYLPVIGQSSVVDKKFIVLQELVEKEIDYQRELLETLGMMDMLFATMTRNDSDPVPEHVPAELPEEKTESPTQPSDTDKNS
Assay: EMSA

UCGUGUCUCGCUUGACCAUGUUCCCAGAGUCGGUGGAUGU (ssRNA) [5'ETS RNA probe]
binding result: binds
